Experimental data: publication PMC8278646 (Microbial Cell Factories, 2021)

Columns and labels:
[1] = target: T1, lysozyme from chicken egg white (chicken, UniProt P00698); experiment: ELISA; antigen coated on MaxiSorp plates (5 ug/mL, carbonate buffer pH 9.6); antibody fragments purified from culture supernatant by cobalt-based immunoprecipitation, serially diluted; detection by anti-6x-His-tag antibody, OD450; room temperature; details: both partners purified
T1 construct: lysozyme C from chicken egg white; source: bought: Sigma-Aldrich
T1 sequence (P00698 19-147): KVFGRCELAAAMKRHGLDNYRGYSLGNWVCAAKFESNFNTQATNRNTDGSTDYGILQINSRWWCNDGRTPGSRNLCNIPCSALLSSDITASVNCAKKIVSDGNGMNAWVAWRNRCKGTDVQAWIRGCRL

[2] = target: T2, lysozyme from chicken egg white (Lyz, with C-FLAG-tag) (chicken, UniProt P00698); experiment: pull-down; Nan-His6 from culture supernatant held on cobalt-based Dynabeads and washed; supernatant with Lyz-FLAG (concentrated eight times) added in pull-down buffer (sodium phosphate pH 7.4, NaCl, Tween-20), 4 C, 30 min; imidazole elution; SDS-PAGE and anti-FLAG western blot; details: one partner purified
T2 construct: lysozyme from chicken egg white, synthesised codon-optimised gene with an alpha-factor leader; band of 15 kDa; probably the mature lysozyme behind the leader; A spacer EEGEPK may stand at the N-terminus; source: S. cerevisiae, secreted with alpha-factor leader; culture supernatant concentrated eight times; not shown: FLAG, C-terminal, kept
T2 sequence (P00698 19-147): as above

B1: Nanobody (Nan, Camelid), single V-type domain against lysozyme (VHH)
VHH: DVQLQASGGGSVQAGGSLRLSCAASGYTIGPYCMGWFRQAPGKEREGVAAINMGGGITYYADSVKGRFTISQDNAKNTVYLLMNSLEPEDTAIYYCAADSTIYASYYECGHGLSTGGYGYDSWGQGTQVTVSS
notes: camelid VhH against lysozyme, 17 kDa; also called VhH; source: S. cerevisiae HA (also LA, MA), secreted with alpha-factor leader; used as culture supernatant and purified from it by cobalt-based immunoprecipitation; not shown: His6, C-terminal, kept
binding result [1]: binds
binding result [2]: binds
